Source: US20200010554A1 (TUSK THERAPEUTICS, published 2020)
Positions count from the first letter of the chain named. Where two headings read alike, the source gives them in different places.

Tests used:
Assay in all cases: flow cytometry titration on Karpas 299 cells, AF647 secondary antibody
[1] = biological target: T1, human CD25 expressed on cells (Karpas 299, SU-DHL-1, SR-786, in vitro differentiated Treg cells, PBMC) (human, UniProt P01589 22-272)
T1 construct: also called CD25 expressing cells
T1 sequence: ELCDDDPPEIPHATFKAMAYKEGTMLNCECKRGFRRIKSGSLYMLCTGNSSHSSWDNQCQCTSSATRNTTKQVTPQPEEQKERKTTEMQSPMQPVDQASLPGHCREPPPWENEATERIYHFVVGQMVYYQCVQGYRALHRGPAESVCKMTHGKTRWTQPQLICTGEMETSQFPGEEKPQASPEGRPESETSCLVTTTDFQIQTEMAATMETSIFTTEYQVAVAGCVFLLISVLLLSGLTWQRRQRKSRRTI

[2] = biological target: T1, human CD25 expressed on cells (Karpas …); remark: listed apart in the source
[3] = biological target: T1, human CD25 expressed on cells (Karpas …); remark: listed apart in the source

B1: Antibody 10 (antibody, V domains shown)
VH: QVQLQESGPGLVKPSETLSLTCTVSGFSLTSYGIQWIRQPPGKGLEWIGVIWAGGSTNYNSALMSRVTISKDNSKNQFSLKLSSVTAADTAVYYCARAYGYDGSWLAYWGQGTLVTVSS
VL: EIVLTQSPATLSLSPGERATLSCRASSSVSYMHWYQQKPGQAPRPLIFATSNLASGIPARFSGSGSGTDFTLTISSLEPEDFAVYYCQQWSSNPPTFGGGTKLEIK
notes: also called Ab10
For B1, the “EC50 (read off the curve)” value [1] was about 0.3 µg/mL.

B2: Antibody 11 (antibody, V domains shown)
VH: B1 VH
VL: B1 VL with E1Q, F70Y
notes: also called Ab11
With B2 the “EC50 (read off the curve)” value [2] was about 0.3 µg/mL.

B3: Antibody 9 (antibody, V domains shown)
VH: EVQLLESGGGLVQPGGSLRLSCAASGFTFSSYGMSWVRQAPGKGLELVSTINGYGDTTYYPDSVKGRFTISRDNAKNTLYLQMNSLRAEDTAVYFCARDRDYGNSYYYALDYWGQGTLVTVSS
VL: QIVLTQSPGTLSLSPGERATLSCRASSSVSFMHWLQQKPGQSPRPLIYATSNLASGIPDRFSGSGSGTDYTLTISRLEPEDFAVYYCQQWSSNPPAFGQGTKLEIK
notes: compared with a human IgG1 isotype control
B3: binds [3].
